From paper PMC3642127, “Distinguishable In Vitro Binding Mode of Monomeric TRBP and Dimeric PACT with siRNA” (PLoS ONE, 2013) come the findings set out here.

Numbering of substitutions follows the chain as printed.

What all share (details): protein: recombinant; tags: N-His6;C-myc; label: 32P guide strand; 2 nt 3' overhangs
In data set [1] the target is T1, TRBP-ΔdsRBD3 (human, UniProt Q15633 1-292).
T1 sequence: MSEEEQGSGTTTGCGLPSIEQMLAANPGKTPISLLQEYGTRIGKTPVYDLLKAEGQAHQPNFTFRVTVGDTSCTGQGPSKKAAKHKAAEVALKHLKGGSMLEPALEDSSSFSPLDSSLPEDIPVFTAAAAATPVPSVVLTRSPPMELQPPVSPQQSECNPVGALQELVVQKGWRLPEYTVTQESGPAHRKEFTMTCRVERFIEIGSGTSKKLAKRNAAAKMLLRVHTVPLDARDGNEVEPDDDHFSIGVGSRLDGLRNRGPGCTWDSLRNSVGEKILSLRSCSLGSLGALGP
As to the kind of experiment: EMSA; complex 1; EMSA: 20 mM Tris pH 7.5, 150 mM NaCl, 2 mM EDTA, 1 mM 2-mercaptoethanol, 1 mM DTT, 50 ng/ul salmon sperm DNA, 0.4 U/ul RNasin, 0.5 nM 32P-siRNA, 30 min on ice. In general terms: A gel shift assay detects complexes by their altered migration in electrophoresis.

Data set [2] has as its target T2, TRBP-WT (human, UniProt Q15633 1-366).
T2 sequence: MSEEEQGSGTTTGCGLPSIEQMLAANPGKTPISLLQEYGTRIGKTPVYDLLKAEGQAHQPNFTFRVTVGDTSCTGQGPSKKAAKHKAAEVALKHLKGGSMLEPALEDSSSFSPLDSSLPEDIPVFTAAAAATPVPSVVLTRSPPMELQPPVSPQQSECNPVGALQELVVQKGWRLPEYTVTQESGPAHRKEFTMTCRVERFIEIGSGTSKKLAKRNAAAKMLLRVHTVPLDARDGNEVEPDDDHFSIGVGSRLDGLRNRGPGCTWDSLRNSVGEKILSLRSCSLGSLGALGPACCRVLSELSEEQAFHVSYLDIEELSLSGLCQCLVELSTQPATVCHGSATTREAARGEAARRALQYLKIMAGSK
Nature of the data set: EMSA; complex 1 (monomer); EMSA: 20 mM Tris pH 7.5, 150 mM NaCl, 2 mM EDTA, 1 mM 2-mercaptoethanol, 1 mM DTT, 50 ng/ul salmon sperm DNA, 0.4 U/ul RNasin, 0.5 nM 32P-siRNA, 30 min on ice.

In data set [3] the target is T3, TRBP-dsRBDmt1 (human, UniProt Q15633 1-366, K80A;K81A).
T3 sequence: T2 sequence with K80A, K81A
As to the kind of experiment: EMSA; single-step complex; EMSA: 20 mM Tris pH 7.5, 150 mM NaCl, 2 mM EDTA, 1 mM 2-mercaptoethanol, 1 mM DTT, 50 ng/ul salmon sperm DNA, 0.4 U/ul RNasin, 0.5 nM 32P-siRNA, 30 min on ice.

Data set [4] deals with T4, TRBP-dsRBDmt2 (human, UniProt Q15633 1-366, K210A;K211A).
T4 sequence: T2 sequence with K210A, K211A
The data set is described as above.

The target in data set [5] is T5, TRBP-dsRBDmt1+2 (human, UniProt Q15633 1-366, K80A;K81A;K210A;K211A).
T5 sequence: T2 sequence with K80A, K81A, K210A, K211A
As to the kind of experiment: EMSA; virtually no binding; Kd ND; EMSA: 20 mM Tris pH 7.5, 150 mM NaCl, 2 mM EDTA, 1 mM 2-mercaptoethanol, 1 mM DTT, 50 ng/ul salmon sperm DNA, 0.4 U/ul RNasin, 0.5 nM 32P-siRNA, 30 min on ice.

B1: siLuc2-153 (dsRNA)
RNA 1: UCGAAGUAUUCCGCGUACGUG
RNA 2: CGUACGCGGAAUACUUCGAUU
As for B1, the Kd was 12 nM in data set [1], 4 nM in data set [2], 260 nM in data set [3] and 520 nM in data set [4]. The binding result in data set [5] was “no binding”.

A word on the Kd: it is the concentration at which binding is half-saturated.
